According to patent US20250269025A1 (AVENCELL THERAPEUTICS, published 2025):

Legend:
[1] = biological target: T1, CD123 on CD123 positive AML cells (Oci-AML3, Molm-13, MV4-11, primary AML cells) (human, UniProt P26951 19-378); assay: cell-based or functional assay
[2] = biological target: T1, CD123 on CD123 positive AML cells …; assay: cell-based or functional assay; remark: listed apart in the source

B1: targeting module according to SEQ ID No. 5 (bispecific antibody)
chain: EVQLQQSGPELVKPGASVKMSCKASGYTFTDYYMKWVKQSHGKSLEWIGDIIPSNGATFYNQKFKGKATLTVDRSSSTAYMHLNSLTSEDSAVYYCTRSHLLRASWFAYWGQGTLVTVSAASGGGGSGGGGSGGGGSDFVMTQSPSSLTVTAGEKVTMSCKSSQSLLNSGNQKNYLTWYLQKPGQPPKLLIYWASTRESGVPDRFTGSGSGTDFTLTISSVQAEDLAVYYCQNDYSYPYTFGGGTKLEIKAAARGDIVMTQSPDSLAVSLGERATINCKSSQSLLNSRTPKNYLAWYQQKPGQPPKLLIYWASTRKSGVPDRFSGSGSGTDFTLTISSLQAEDVAVYYCKQSYNLLTFGGGTKVEIKGGGGSGGGGSGASAAGGGGSGGGGSQVQLVQSGAEVKKPGASVKVSCKASGYTFTHYYIYWVRQAPGQGLEWMGGVNPSNGGTHFNEKFKSRVTMTRDTSISTAYMELSRLRSDDTAVYYCARSEYDYGLGFAYWGQGTLVTVSSGGGGSHHHHHHHH
notes: also called R-TM123; muCD123 + 5B9-VL-VH
EC50 of R-TM123 for CD25 expression on CD4+ RevCAR-T, co-culture with MOLM-13, Donor #1 [1]: 2.6 pM | EC50 of R-TM123 for CD25 expression on CD4+ RevCAR-T, co-culture with MOLM-13, Donor #2 [1]: 2.2 pM | EC50 of R-TM123 for CD25 expression on CD4+ RevCAR-T, co-culture with MOLM-13, Donor #3 [1]: 2.3 pM | EC50 of R-TM123 for CD25 expression on CD4+ RevCAR-T, co-culture with MOLM-13, Donor #4 [1]: 1.2 pM | EC50 of R-TM123 for CD25 expression on CD4+ RevCAR-T, co-culture with MOLM-13, Mean [1]: 2.1 pM | EC50 of R-TM123 for CD25 expression on CD4+ RevCAR-T, co-culture with MV4-11, Donor #1 [1]: 8 pM | EC50 of R-TM123 for CD25 expression on CD4+ RevCAR-T, co-culture with MV4-11, Donor #2 [1]: 6.5 pM | EC50 of R-TM123 for CD25 expression on CD4+ RevCAR-T, co-culture with MV4-11, Donor #3 [1]: 10.2 pM | EC50 of R-TM123 for CD25 expression on CD4+ RevCAR-T, co-culture with MV4-11, Donor #4 [1]: 8.9 pM | EC50 of R-TM123 for CD25 expression on CD4+ RevCAR-T, co-culture with MV4-11, Mean [1]: 8.4 pM | EC50 of R-TM123 for CD25 expression on CD4+ RevCAR-T, co-culture with OCI-AML3, Donor #1 [1]: 2.9 pM | EC50 of R-TM123 for CD25 expression on CD4+ RevCAR-T, co-culture with OCI-AML3, Donor #2 [1]: 3 pM | EC50 of R-TM123 for CD25 expression on CD4+ RevCAR-T, co-culture with OCI-AML3, Donor #3 [1]: 2.3 pM | EC50 of R-TM123 for CD25 expression on CD4+ RevCAR-T, co-culture with OCI-AML3, Donor #4 [1]: 2.4 pM | EC50 of R-TM123 for CD25 expression on CD4+ RevCAR-T, co-culture with OCI-AML3, Mean [1]: 2.6 pM | EC50 of R-TM123 for CD25 expression on CD8+ RevCAR-T, co-culture with MOLM-13, Donor #1 [1]: 5.2 pM | EC50 of R-TM123 for CD25 expression on CD8+ RevCAR-T, co-culture with MOLM-13, Donor #2 [1]: 4.3 pM | EC50 of R-TM123 for CD25 expression on CD8+ RevCAR-T, co-culture with MOLM-13, Donor #3 [1]: 6 pM | EC50 of R-TM123 for CD25 expression on CD8+ RevCAR-T, co-culture with MOLM-13, Donor #4 [1]: 2.1 pM | EC50 of R-TM123 for CD25 expression on CD8+ RevCAR-T, co-culture with MOLM-13, Mean [1]: 4.4 pM | EC50 of R-TM123 for CD25 expression on CD8+ RevCAR-T, co-culture with MV4-11, Donor #1 [1]: 6.7 pM | EC50 of R-TM123 for CD25 expression on CD8+ RevCAR-T, co-culture with MV4-11, Donor #2 [1]: 4.3 pM | EC50 of R-TM123 for CD25 expression on CD8+ RevCAR-T, co-culture with MV4-11, Donor #3 [1]: 7.2 pM | EC50 of R-TM123 for CD25 expression on CD8+ RevCAR-T, co-culture with MV4-11, Donor #4 [1]: 5.1 pM | EC50 of R-TM123 for CD25 expression on CD8+ RevCAR-T, co-culture with MV4-11, Mean [1]: 5.8 pM | EC50 of R-TM123 for CD25 expression on CD8+ RevCAR-T, co-culture with OCI-AML3, Donor #1 [1]: 8.7 pM | EC50 of R-TM123 for CD25 expression on CD8+ RevCAR-T, co-culture with OCI-AML3, Donor #2 [1]: 15.7 pM | EC50 of R-TM123 for CD25 expression on CD8+ RevCAR-T, co-culture with OCI-AML3, Donor #3 [1]: 14.6 pM | EC50 of R-TM123 for CD25 expression on CD8+ RevCAR-T, co-culture with OCI-AML3, Donor #4 [1]: 4.8 pM | EC50 of R-TM123 for CD25 expression on CD8+ RevCAR-T, co-culture with OCI-AML3, Mean [1]: 11 pM | EC50 of R-TM123 for GM-CSF release by RevCAR-T, co-culture with MOLM-13 [2]: 37.7 pM | EC50 of R-TM123 for Granzyme B release by RevCAR-T, co-culture with MOLM-13 [2]: 4.4 pM | EC50 of R-TM123 for IFN-γ release by RevCAR-T, co-culture with MOLM-13 [2]: 19.3 pM | EC50 of R-TM123 for IL-2 release by RevCAR-T, co-culture with MOLM-13 [2]: 63.9 pM | EC50 of R-TM123 for IL-4 release by RevCAR-T, co-culture with MOLM-13 [2]: 54.2 pM | EC50 of R-TM123 for Perforin release by RevCAR-T, co-culture with MOLM-13 [2]: 3.7 pM | EC50 of R-TM123 for TNF-α release by RevCAR-T, co-culture with MOLM-13 [2]: 53.9 pM
